This note sets out measurements from the domain aggregation screens of Martell et al. (2025).

The data set can be described thus: soluble fraction after stress (log2 fold change); higher = more stays soluble; pooled small domains, quantitative proteomics. The note with it: stress: 75 degC.
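Further: 20 min heating vs room temperature control held 20 min.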

Take “HMSKISKENEQQVIQIVQTLLLNVQDKSLITTQILNEKINLAVSLDTKYKENLDRDYIIEELIRRYSVW”: the “soluble fraction (log2)” value is -2.93.

Turning to “HMSKKIVLPAAITVKKFSETLDMPLGTVISELMKNGILATINERIDFETASIIAQDLGYEVSEEV”, the “soluble fraction (log2)” value was -0.216. The same measure for “HMSKKQEQALQSREKLLDAATALFAEHGYRDTSVQAIGEKAGVSRGSIFWHFGSKEGLLWAVVERAFTA”: 0.303; for “HMSKKTQKDEVVDLFLKTGNEPLHYKEISKKTGIIVHNVRRITGQNVVGKTDNPVFKRVSPGVYKLID”: -0.72. The same measure for “HMSKLSVSSLSSPEVQNQLKAAGIDVNSRQYQVVMKDMMGALDGRAGYTTVSAIKNRMRQYNADGDY”: 0.687; for “HMSKMVEMSQEKSREKVARVKIEIQKMLDRKERVTVSGLERATGFSNSFFYRNEEVNQAVKEAQLKQ”: -0.138; for “HMSKNIRQQFLDVLPKTFDRNQYLETAKKLSINAKTAEGYIKKFVEANLLDHPKHNHYINLKKVEEVETK”: -0.0919. The figure for “HMSKNYYEILGVTPDVELSQLKAVYRRLVRKYHPDINPDGELIFKDITEAYEVLSDEKQRKQYDMINGF” is -0.596.

Consider “HMSKPILSFVDPEKDPSHYVKRYITEETYKDWFSEHFPDYTLYEGIGITQEEYRNIVNELTKP”, for which the “soluble fraction (log2)” value is -0.5. The figure for “HMSKPIYSELLREIRSGDVKELTLIPQRREVLVEYSDGRKATVSILANDQQVLRTAESAGVPLTVK” is -0.0278.

With “HMSKPVFQTHSVRSADSATVFDVLQTLLAGTPDARIAIDPKTNAIVAWARPETQEVIAKSIMEMEG”, the “soluble fraction (log2)” value worked out at 0.0746. The same measure for “HMSKQIEVPDVTDMTVSDAIDVLQDKGFVVSDEQKEVASSEIEEGRVVRTSPAVGSKRKDGTVVTLYVSI”: 0.353.

Turning to “HMSKTEEIAYTTFVKYLENKDIEEVYLGNNAKIKVILKDGREMITDNPRTADFKKDLLLHDIKVVEKT”, the “soluble fraction (log2)” value is -0.0889. The figure for “HMSKYGIAYSEVLEILKHIPIEDYNKIPRNEIELFETYADKDFTFNYDSSKTLEEQNVSNITKGIIIL” is -0.56. The same measure for “HMSLEEQNGAKDRQVEAYELLLKAQRALDQEDTAGFQAAMKDLEPLSSQLDAQGQTLYHELLPFVS”: -0.232; for “HMSLGSNISRLRAEKHLSQGDLAEALDVSRQSVSKWETDGSVPDLDKLVKLSRIFGVTLDELVTGTP”: -0.039; for “HMSLIHEQSLKEIRIFINNLPESLRTAFTLREQDGLSYEEISKITDTPIGTVRSRIFRARESILEHINEEL”: -2.25.

Regarding “HMSLLTPLEEARIVIEELIIPQKLTLDLLPQNSQIRKLQHEIINHYRLKGISIGDGKNRRVRIYS”, the “soluble fraction (log2)” value is -0.204. For “HMSLMHEESLKNIRRFINSLPESLRTAFTLREQDGLSYEEIGVITETPIGTVRSRIFRAREAILEHIKKEL”, the “soluble fraction (log2)” value was -2.39. The same measure for “HMSLMLYVEDVDTAFKKAIELGATEIRPVHDQFYGDRAGTLQDPFGHIWIIGTHKEDVSDEELNNRIGNI”: 0.104. The figure for “HMSLPNNLIEQLQDPEPKARRRAVRRLAATRDPSAIPLLRNVYLQDGDDRVRDAAEAALVQFRAMQHN” is -0.112. The figure for “HMSLPTYVQISEAIARRITAGQWLDGERLPPERTMAAEFGVAVGTLRKALSRLQDQKLLRRLQGSGNYINI” is -1.67; for “HMSLREKNKARTRTAILNAARDLAKQGQWDAITTRQIADAAGVSYQTLYNYYPSKASILVEMLL” it is -2.03; for “HMSLSDDIAQTLRQLGFDRDVSETLANDVLPAMPTRQDVIDLLGTLGIEKHVAADFANFVVLN” it is -0.964. For “HMSLSEYLSAPVLEGQRNHALFSAVMQAREQGWDEWQIRTTIGAKAEADGLRHAEIAATIRSAMSREITP”, the “soluble fraction (log2)” value is -0.314. The same measure for “HMSLSIKINHESVGLRLDQFLQEHYYKQQSRSYVQHAIKEGYILVNGQSVKNGYMLKLDDLIELEAI”: -4.5. The same measure for “HMSLSNMIGKNIQWTHVTKTKDAEGNPKTNSETFAGNVRGVKVLNGKPMVVAQDAKGKLHEVEVSEIEAIA”: 0.0953. The same measure for “HMSLTEDELFHALTIYANREGINIGATELKYLLTHYARNLGKLIELINQVSQAATMQKKPITIPLIKHS”: -0.411; for “HMSLTGFYNLTFKQADRLSVIDEAGEEVYKQAIAMGSTTKTIDLSALNAGVYFIRIYNGEVIAQEKIVLN”: -0.933. For “HMSLTYTGKFILNHNNIDQSSFNINIYLVNKQTIIQITKPFYGNVLNIKFNEENDLIISPKQFS”, the “soluble fraction (log2)” value was -0.369. The same measure for “HMSMDPYTVLGVNKSSTDSQIKNAYKNLAKQHHPDRGGNEAKFKEISTAYEQIKTAEKRQQYDMSQQF”: 0.604. The figure for “HMSMFAQQLKDLRKKIPGLTQTDMAKKLGIAKTTYASYEQGKRTPDIETQNKIADFFNVSLDYLHG” is -0.302; for “HMSMFSEILRTLRKAKGLTQRELAGHLGVTQQMVAKWEKGQSTPGPDQLTRMAELLEVSTDTLLGR” it is -0.366; for “HMSMNSWFVEKERDNTRIDKFLNEQMADISRSYIQKLIKDDLVTVDLRPVKANYKVKEGDRVEVTLPEPV” it is 0.000708. For the sequence “HMSMPTITLQHYKRGSHYYASIIETFRDPVTRKNSSRTLEALGDISEKMKEDPNYLQSLKDRVKALRSD”, the “soluble fraction (log2)” value is -0.899. The figure for “HMSMSLQFLSRRIRLQREKRGLKQHDIAHALQISPQAVSKWERGENAPDIALLRPLAGLLGVSIDWLMGGD” is -3.27. The figure for “HMSNEEEIEGLVSKVLDNNPEIVERIRSGEDKLISYLVGEVMKQSSSSLNPGIVKEIIVNKTI” is 0.091; for “HMSNEITVPDLSGMSLEELETILSDRSLSYEIIDSIYNSTAKKGTVSSQDPLPDAKVKSGRTIYITVVSKL” it is -1.85.

As for “HMSNENIDQDELQAIIQKVLASNQDAVAKYKAGKTAVIGFLIGQVMRQLNKKIDVALAKKTLLVFLEK”, the “soluble fraction (log2)” value is -1.42. The same measure for “HMSNETKSAILNFAEKHHDFNIDDLFESLSKSMDINRSSLLWHLFKLVNSNVLIRTGRGMYAKV”: -2.62. As for “HMSNEVSYSDFVRSVESDEVNAVTLDGEQIRFVGNDGQTYSVIKPADAQITQLLIDNNVTVRAEQQ”, the “soluble fraction (log2)” value came to 0.123.

On to “HMSNEYLMPNLIGMSWDEAKSKYSQYMTLVPEQEWSEVTKDQIFDQEYPEGRKVKIGTEVTVKVSMGI”, for which the “soluble fraction (log2)” value is -0.654. Turning to “HMSNFGALLRMRRLEAGLSYRGLAEQSGLARATLVNLEQGLTKPSPLTMRRLASVKALRLTEL”, the “soluble fraction (log2)” value is -3.17. The figure for “HMSNFGERLRALRQDRQMTLQQASKVTGVAQSTLSKMENNQLSPTFNLMQKLAIGLGIDMPQLFAPVK” is -0.642; for “HMSNGEWQQGSDGRWWYKFSDGTYPKNKVETIGGKKYGFDSEGWMLANTTKEFSGTTYSFGADGVATS” it is 0.223; for “HMSNHYETLGVEQTASVDEIKKAYRRLSLQYHPDRNTTSDAVGKFQKINDAHEILSDKQSRTEYDMQLK” it is 0.0273. The figure for “HMSNIQLAANLQRLRKDHHFTQTQFSKKLNISRQAYSNYETGKRIPDLDIIIRIANIYHISLENLL” is -0.305; for “HMSNKYYETILDWFKSQIMSGELKEGDTIPSERELATRFGVSRVPVREALRILEYIGIVSNTADGMTVQKV” it is -1.72. The same measure for “HMSNLKKRRLEKNLTLDDVGKLVGVSAATISRWESGDIENMRSDKIVKLANALEISPAVILGW”: -0.0179. For “HMSNLLKNILDVLEKEGPLKARKIALLLDSTRTTITHTTINSELYKALDLEGLTKNEQNIWSYVT”, the “soluble fraction (log2)” value came out at 0.145.
